Results from US5344846A, “Compositions and methods for inhibiting deoxyhypusine synthase and the growth of cells” (The United States of America as represented by the …, priority 1992, dated 1994).

Substrate: NCCCCNCCCN
Test: Inhibition of deoxyhypusine synthase ([3H]deoxyhypusine formation from [3H]spermidine), IC50/Ki
Assay type: biochemical, rat
Settings: pH 9.3; 37.0 °C
Method: A typical assay mixture included 0.2M glycine, 1 mM dithiothreitol, 0.5 mM NAD^+, 2.4 micromolar (μM) [1,8-^3 H] spermidine, 1 μM ec-eIF-5A(Lys), 25 micrograms (μg) bovine serum albumin, and 3-15 units of enzyme in a total volume of 20 microliters (μl). Incubations were carried out at pH 9.3 and 37° C. for 1 hour. […] Percent inhibition was plotted versus log inhibitor concentration in order to obtain graphic estimates of IC50 values, i.e., the concentrations inhibiting [^3 H]deoxyhypusine production by 50%. The IC50 values reported in the tables were calculated by fitting the data points to equation 1 where x=% inhibition and I is the inhibitor concentration. […] The nature of the inhibition was determined by plotting reciprocal velocities of [^3 H]deoxyhypusine production against reciprocals of [^3 H]spermidine concentrations at a constant fixed level of ec-eIF-5A(Lys) (1 μM) and at set inhibitor concentrations. […] Estimates of Ki values were made by fitting the data to equation 2; wherein v is the velocity of the reaction, V is the maximum velocity, S is the substrate concentration, Km is Michaeli's constant, Ki is the inhibition constant, and I is the inhibitor concentration.

B1: deoxyhypusine synthase from rat testis (Rattus norvegicus) (protein)
chain: MEGTPSGAAPSSALAAVLKHSSALPPESAQVQGYDFNRGVDYHALLEAYGTTGFQATNFGRAVQQVNAMIEKKLEPLAVDEDHHEDLTQSRRPLTGCTIFLGYTSNLISSGIRETIRYLVQHNMVDVLVTTAGGVEEDLIKCLAPTYLGEFSLRGKELRENGINRIGNLLVPNDNYCKFEDWLMPILDQMVQEQNTEGVKWTPSKMISRLGKEINNPESVYYWAHKNHIPVLSPALTDGSLGDMIFFHSYKNPGLVLDIVEDLRLINMQAIFAKRTGMIILGGGVVKHHIANANLMRNGADYAVYINTAQEFDGSDSGARPDEAVSWGKIRMDAQPVKVYADASLVFPLLVAETFAQKADAFRAEKNED
notes: as catalyzed by deoxyhypusine synthase from rat testis; from tissue; host or cells: rat testis
  Km: 4.5 ± 0.7 µM
